Laboratory results published in PMC9299608, “A Multi‐enzyme Cascade for the Biosynthesis of AICA Ribonucleoside Di‐ and Triphosphate” (Chembiochem, 2021).

Key:
MrPPK = target: T1, MrPPK (Meiothermus ruber, UniProt M9XB82); test: HPLC product quantification, Michaelis-Menten fit limited to data without substrate inhibition; assay type: biochemical; settings: sodium polyphosphate as phosphate donor (standard assay 5 mM), MgCl2 20 mM, tris pH 8.0, 40 °C; not a true KM; reduced activity above 14 mM substrate
T1 construct: gene K649_10090; expressed in E. coli SHuffle T7 Express; IMAC and desalting
T1 sequence (M9XB82 1-267): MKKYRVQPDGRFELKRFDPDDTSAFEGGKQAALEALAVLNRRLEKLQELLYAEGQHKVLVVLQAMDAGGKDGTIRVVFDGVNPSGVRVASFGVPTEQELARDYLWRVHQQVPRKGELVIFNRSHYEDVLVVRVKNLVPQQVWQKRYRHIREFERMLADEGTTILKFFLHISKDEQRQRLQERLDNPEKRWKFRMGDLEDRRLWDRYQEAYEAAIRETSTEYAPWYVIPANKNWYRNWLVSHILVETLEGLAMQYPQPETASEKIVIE
Source text: HPLC product quantification, Michaelis-Menten fit limited to data without substrate inhibition on MrPPK

[1] = test system: NC(=O)c1ncn([C@@H]2O[C@H](COP(=O)(O)O)[C@@H](O)[C@H]2O)c1N; test: purified protein; settings: sodium polyphosphate as phosphate donor (standard assay 5 mM), MgCl2 20 mM, tris pH 8.0, 30 °C
[2] = substrate: NC(=O)c1[nH]cnc1N; test: HPLC product quantification, Michaelis-Menten fit; assay type: biochemical, Escherichia coli; settings: co-substrate PRPP, MgCl2 20 mM, tris pH 8.0, standard assay 40 °C (kinetics under conditions optimized for each cascade), text b32 gives 6.2
Source text: HPLC product quantification, Michaelis-Menten fit on EcAPT

Molecule: NC(=O)c1ncn([C@@H]2O[C@H](COP(=O)(O)O)[C@@H](O)[C@H]2O)c1N [ZMP]
- Km (MrPPK): > 8.6 mM

Molecule: AjPPK (Acinetobacter johnsonii)
- Km [1]: 8.2 ± 1.4 mM
- Vmax [1]: 67 µmol/min/mg

B1: EcAPT (Escherichia coli K-12) (protein)
chain: MTATAQQLEYLKNSIKSIQDYPKPGILFRDVTSLLEDPKAYALSIDLLVERYKNAGITKVVGTEARGFLFGAPVALGLGVGFVPVRKPGKLPRETISETYDLEYGTDQLEIHVDAIKPGDKVLVVDDLLATGGTIEATVKLIRRLGGEVADAAFIINLFDLGGEQRLEKQGITSYSLVPFPGH
notes: expressed in E. coli BL21(DE3); IMAC and desalting
- Km [2]: 6.3 ± 2.3 mM
- Vmax [2]: 8.6 µmol/min/mg
